We go through four sequences from the supplement of paper PMC5998384.

Data set [1] has as its system HeLa Kyoto. The experiment in a line: solubility in G1/S (NP-40 vs SDS abundance) (log2 ratio); higher = more soluble. To be noted: cell cycle stage: G1/S.
The test system of data set [2] is HeLa Kyoto. In words: melting temperature (median over replicates), in situ; higher = more thermally stable.
For data set [3], the system named is HeLa Kyoto. In words: solubility change mitosis vs G1/S (difference of NP-40 vs SDS log2 ratios) (log2 ratio difference); higher = more soluble in mitosis.
The test system of data set [4] is HeLa Kyoto. In words: thermal stability score vs G1/S (z-score of summed log2 fold changes over temperatures); higher = more thermally stable than in G1/S.
The mark [5] stands for this setting: cell cycle stage: early G1 (4.5 h after nocodazole release).
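Wherever melting temperature (median over replicates), in situ is given: HeLa Kyoto cells synchronized by double thymidine or nocodazole block, proteins quantified by TMT10plex mass spectrometry, three independent biological replicates.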
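Wherever solubility change mitosis vs G1/S (difference of NP-40 vs SDS log2 ratios) is given: synchronized HeLa Kyoto cells (double thymidine block for G1/S, nocodazole release for mitosis), protein amounts in NP-40 versus SDS lysates quantified by mass spectrometry, three biological replicates.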
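Wherever solubility in G1/S (NP-40 vs SDS abundance) is given: HeLa Kyoto cells arrested at G1/S by double thymidine block, proteins quantified by TMT10plex mass spectrometry in mild NP-40 versus SDS extracts, three biological replicates.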
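Wherever thermal stability score vs G1/S (z-score of summed log2 fold changes over temperatures) is given: synchronized HeLa Kyoto cells, proteins quantified by TMT10plex mass spectrometry, three biological replicates, mitosis taken 0.5 h after nocodazole release, G1/S directly after double thymidine block.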

Regarding “MAEHPPLLDTTQILSSDISLLSAPIVSADGTQQVILVQVNPGEAFTIRREDGQFQCITGPAQVPMMSPNGSVPPIYVPPGYAPQVIEDNGVRRVVVVPQAPEFHPGSHTVLHRSPHPPLPGFIPVPTMMPPPPRHMYSPVTGAGDMTTQYMPQYQSSQVYGDVDAHSTHGRSNFRDERSSKTYERLQKKLKDRQGTQKDKMSSPPSSPQKCPSPINEHNGLIKGQIAGGINTGSAKIKSGKGKGGTQVDTEIEEKDEETKAFEALLSNIVKPVASDIQARTVVLTWSPPSSLINGETDESSVPELYGYEVLISSTGKDGKYKSVYVGEETNITLNDLKPAMDYHAKVQAEYNSIKGTPSEAEIFTTLSCEPDIPNPPRIANRTKNSLTLQWKAPSDNGSKIQNFVLEWDEGKGNGEFCQCYMGSQKQFKITKLSPAMGCKFRLSARNDYGTSGFSEEVLYYTSGCAPSMPASPVLTKAGITWLSLQWSKPSGTPSDEGISYILEMEEETSGYGFKPKYDGEDLAYTVKNLRRSTKYKFKVIAYNSEGKSNPSEVVEFTTCPDKPGIPVKPSVKGKIHSHSFKITWDPPKDNGGATINKYVVEMAEGSNGNKWEMIYSGATREHLCDRLNPGCFYRLRVYCISDGGQSAVSESLLVQTPAVPPGPCLPPRLQGRPKAKEIQLRWGPPLVDGGSPISCYSVEMSPIEKDEPREVYQGSEVECTVSSLLPGKTYSFRLRAANKMGFGPFSEKCDITTAPGPPDQCKPPQVTCRSATCAQVNWEVPLSNGTDVTEYRLEWGGVEGSMQICYCGPGLSYEIKGLSPATTYYCRVQALSVVGAGPFSEVVACVTPPSVPGIVTCLQEISDDEIENPHYSPSTCLAISWEKPCDHGSEILAYSIDFGDKQSLTVGKVTSYIINNLQPDTTYRIRIQALNSLGAGPFSHMIKLKTKPLPPDPPRLECVAFSHQNLKLKWGEGTPKTLSTDSIQYHLQMEDKNGRFVSLYRGPCHTYKVQRLNESTSYKFCIQACNEAGEGPLSQEYIFTTPKSVPAALKAPKIEKVNDHICEITWECLQPMKGDPVIYSLQVMLGKDSEFKQIYKGPDSSFRYSSLQLNCEYRFRVCAIRQCQDSLGHQDLVGPYSTTVLFISQRTEPPASTNRDTVESTRTRRALSDEQCAAVILVLFAFFSILIAFIIQYFVIK [FNDC3A]”, the “solubility in G1/S (log2)” value with HeLa Kyoto [1] was -0.111. In addition, the melting temperature is 48.7 °C in the data set with HeLa Kyoto [2] (cell cycle stage: G1/S) and 49.1 °C with HeLa Kyoto [2] (cell cycle stage: mitosis). For the same sequence, the “solubility change mitosis (log2)” value with HeLa Kyoto [3] is -0.0736. The thermal stability score in the data set with HeLa Kyoto [4] (setting [5]) came to 1.05; with HeLa Kyoto [4] (cell cycle stage: mitosis) it was 2.65.
With “MAEMATATRLLGWRVASWRLRPPLAGFVSQRAHSLLPVDDAINGLSEEQRQLRQTMAKFLQEHLAPKAQEIDRSNEFKNLREFWKQLGNLGVLGITAPVQYGGSGLGYLEHVLVMEEISRASGAVGLSYGAHSNLCINQLVRNGNEAQKEKYLPKLISGEYIGALAMSEPNAGSDVVSMKLKAEKKGNHYILNGNKFWITNGPDADVLIVYAKTDLAAVPASRGITAFIVEKGMPGFSTSKKLDKLGMRGSNTCELIFEDCKIPAANILGHENKGVYVLMSGLDLERLVLAGGPLGLMQAVLDHTIPYLHVREAFGQKIGHFQLMQGKMADMYTRLMACRQYVYNVAKACDEGHCTAKDCAGVILYSAECATQVALDGIQCFGGNGYINDFPMGRFLRDAKLYEIGAGTSEVRRLVIGRAFNADFH [IVD]”, in the data set on HeLa Kyoto [1], the “solubility in G1/S (log2)” value turned out to be 0.138. For the same sequence, the results for the melting temperature in the data set with HeLa Kyoto [2] (cell cycle stage: G1/S) and with HeLa Kyoto [2] (cell cycle stage: mitosis) were 54 °C and 53.8 °C, respectively. Further, the “solubility change mitosis (log2)” value with HeLa Kyoto [3] was -0.107. The thermal stability score was -0.748 in the data set on HeLa Kyoto [4] (setting [5]) and -4.11 with HeLa Kyoto [4] (cell cycle stage: mitosis).
For “MAENGDNEKMAALEAKICHQIEYYFGDFNLPRDKFLKEQIKLDEGWVPLEIMIKFNRLNRLTTDFNVIVEALSKSKAELMEISEDKTKIRRSPSKPLPEVTDEYKNDVKNRSVYIKGFPTDATLDDIKEWLEDKGQVLNIQMRRTLHKAFKGSIFVVFDSIESAKKFVETPGQKYKETDLLILFKDDYFAKKNEERKQNKVEAKLRAKQEQEAKQKLEEDAEMKSLEEKIGCLLKFSGDLDDQTCREDLHILFSNHGEIKWIDFVRGAKEGIILFKEKAKEALGKAKDANNGNLQLRNKEVTWEVLEGEVEKEALKKIIEDQQESLNKWKSKGRRFKGKGKGNKAAQPGSGKGKVQFQGKKTKFASDDEHDEHDENGATGPVKRAREETDKEEPASKQQKTENGAGDQ [SSB]”, the “solubility in G1/S (log2)” value in the data set on HeLa Kyoto [1] is 0.66. Moreover, the figures for the melting temperature in the data set on HeLa Kyoto [2] (cell cycle stage: G1/S) and in the data set on HeLa Kyoto [2] (cell cycle stage: mitosis) were 49.3 °C and 50.3 °C, respectively. Besides, the “solubility change mitosis (log2)” value in the data set with HeLa Kyoto [3] was -0.0733. Moreover, the results for the thermal stability score with HeLa Kyoto [4] (setting [5]) and in the data set with HeLa Kyoto [4] (cell cycle stage: mitosis) were 2.85 and 0.442, respectively.
As for “MAENKGGGEAESGGGGSGSAPVTAGAAGPAAQEAEPPLTAVLVEEEEEEGGRAGAEGGAAGPDDGGVAAASSGSAQAASSPAASVGTGVAGGAVSTPAPAPASAPAPGPSAGPPPGPPASLLDTCAVCQQSLQSRREAEPKLLPCLHSFCLRCLPEPERQLSVPIPGGSNGDIQQVGVIRCPVCRQECRQIDLVDNYFVKDTSEAPSSSDEKSEQVCTSCEDNASAVGFCVECGEWLCKTCIEAHQRVKFTKDHLIRKKEDVSESVGASGQRPVFCPVHKQEQLKLFCETCDRLTCRDCQLLEHKEHRYQFLEEAFQNQKGAIENLLAKLLEKKNYVHFAATQVQNRIKEVNETNKRVEQEIKVAIFTLINEINKKGKSLLQQLENVTKERQMKLLQQQNDITGLSRQVKHVMNFTNWAIASGSSTALLYSKRLITFQLRHILKARCDPVPAANGAIRFHCDPTFWAKNVVNLGNLVIESKPAPGYTPNVVVGQVPPGTNHISKTPGQINLAQLRLQHMQQQVYAQKHQQLQQMRMQQPPAPVPTTTTTTQQHPRQAAPQMLQQQPPRLISVQTMQRGNMNCGAFQAHQMRLAQNAARIPGIPRHSGPQYSMMQPHLQRQHSNPGHAGPFPVVSVHNTTINPTSPTTATMANANRGPTSPSVTAIELIPSVTNPENLPSLPDIPPIQLEDAGSSSLDNLLSRYISGSHLPPQPTSTMNPSPGPSALSPGSSGLSNSHTPVRPPSTSSTGSRGSCGSSGRTAEKTSLSFKSDQVKVKQEPGTEDEICSFSGGVKQEKTEDGRRSACMLSSPESSLTPPLSTNLHLESELDALASLENHVKIEPADMNESCKQSGLSSLVNGKSPIRSLMHRSARIGGDGNNKDDDPNEDWCAVCQNGGDLLCCEKCPKVFHLTCHVPTLLSFPSGDWICTFCRDIGKPEVEYDCDNLQHSKKGKTAQGLSPVDQRKCERLLLYLYCHELSIEFQEPVPASIPNYYKIIKKPMDLSTVKKKLQKKHSQHYQIPDDFVADVRLIFKNCERFNEMMKVVQVYADTQEINLKADSEVAQAGKAVALYFEDKLTEIYSDRTFAPLPEFEQEEDDGEVTEDSDEDFIQPRRKRLKSDERPVHIK [TRIM33]”, the “solubility in G1/S (log2)” value in the data set with HeLa Kyoto [1] turned out to be 0.105. For the same sequence, the melting temperature in the data set on HeLa Kyoto [2] (cell cycle stage: G1/S) worked out at 48.1 °C; in the data set on HeLa Kyoto [2] (cell cycle stage: mitosis), 49.7 °C. Besides, the “solubility change mitosis (log2)” value in the data set with HeLa Kyoto [3] is -0.201. Moreover, the thermal stability score in the data set on HeLa Kyoto [4] (setting [5]) worked out at 2.02; in the data set with HeLa Kyoto [4] (cell cycle stage: mitosis), 4.15.
